# Numbering of substitutions follows the chain as printed.
# B1: IP359 (Fc fusion)
# chain: YSEGTFTSDYSKLLEEEAVRLFIEHLLAGGGGGGSGGGGSGGGGSGGGGSATHTCPPC
# B2: IP380 (Fc fusion)
# chain: B1 chain with H25F
# B3: IP412 (Fc fusion)
# chain: B1 chain with V19N, H25W
# B4: IP381 (Fc fusion)
# chain: B1 chain with H25Y
# B5: IP275 (Fc fusion)
# chain: YSEGTFTSDYSKLLEKEAQRLFIEWLLKGPGGGGGSGGGGSGGGGSGGGGSATHTCPPC
# B6: IP289 (Fc fusion)
# chain: B5 chain with Q19E
# B7: IP339 (Fc fusion)
# chain: YSEGTFTSDYSKLLEKEAQRLFIEWLLAGGGGGGGSGGGGSGGGGSGGGGSGGGGSGGGGSA
# B8: IP299 (Fc fusion)
# chain: YSEGTFISDYSKLLEEEAVRDFVEWLKAGGGGGGGSGGGGSGGGGSGGGGSATHTCPPC
# B9: IP301 (Fc fusion)
# chain: YSEGTFTSDVSSYLEREAIDEFIAWLLKGGAAAGGSGSTASSGSGSATGGGGAATHTCPPC
# B10: IP306 (Fc fusion)
# chain: B9 chain with V10Y, S12K, Y13L, E17Q
# B11: IP307 (Fc fusion)
# chain: B9 chain with L14M, E17Q, G29Q
# B12: IP309 (Fc fusion)
# chain: B9 chain with T7I, E17Q
# B13: IP315 (Fc fusion)
# chain: B9 chain with T7I, V10Y, E17Q
# B14: IP310 (Fc fusion)
# chain: B9 chain with L14M, E17Q, G30K
# B15: IP312 (Fc fusion)
# chain: B9 chain with T7I, L14M, E17Q
# B16: IP247 (Fc fusion)
# chain: YSEGTFTSDYSKLLEKIHQQLFIEWLVKGPAAAGGSGSTASSGSGSATGGGGAATHTCPPCPAPEF
# B17: IP392 (Fc fusion)
# chain: YSEGTFISDYSIAMDKIHQQDFVNWLLAQKGAANDWKHNITQGGGGSGGGGSGGGGSGGGGSGGGGSGGGGSACPPC
# B18: IP398 (Fc fusion)
# chain: B17 chain with A32K, A33K
# B19: IP209 (Fc fusion)
# chain: YSEGTFTSDYSSYMERQAIDEFIAWLLKGGAAAGGSGSTASSGSGSATGGGGAATHTCPPCPAPEF
# B20: IP387 (Fc fusion)
# chain: YSEGTFISDYSIAMDKIHQQDFVNWLLAQKGGGGGSGGGGSGGGGSGGGGSGGGGSGGGGSGGGGSGGGGSACPPC
# B21: IP389 (Fc fusion)
# chain: YSEGTFISDYSIAMDKIHQQDFVNWLLAQKGGGGGSGGGGSGGGGSGGGGSGGGGSGGGGSGGGGSACPPC
# B22: IP402 (Fc fusion)
# chain: YSEGTFISDYSIAMDKIHQQDFVNWLLAQKGSGGGGSGGGGSGGGGSGGGGSGGGGSGGGGSGGGGSACPPC
# Target: T1, rat GIP receptor (rat) (UniProt P43219)
# T1 sequence (looked up): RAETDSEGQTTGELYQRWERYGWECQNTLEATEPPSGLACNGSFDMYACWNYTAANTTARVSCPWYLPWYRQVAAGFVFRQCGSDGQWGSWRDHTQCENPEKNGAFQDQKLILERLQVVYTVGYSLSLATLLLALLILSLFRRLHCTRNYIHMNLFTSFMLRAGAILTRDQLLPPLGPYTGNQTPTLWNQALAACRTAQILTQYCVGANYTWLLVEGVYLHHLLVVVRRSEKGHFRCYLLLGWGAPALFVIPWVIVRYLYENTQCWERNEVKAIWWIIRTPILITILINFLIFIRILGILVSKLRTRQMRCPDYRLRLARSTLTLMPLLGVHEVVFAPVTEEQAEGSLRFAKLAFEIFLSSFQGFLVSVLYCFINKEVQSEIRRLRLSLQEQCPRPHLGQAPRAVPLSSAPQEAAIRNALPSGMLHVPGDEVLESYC
# Experiment: cell-based or functional assay
Binder,cAMP EC50,"cAMP EC50, Batch 2"
B1,0.039 nM,
B2,0.06 nM,
B3,0.018 nM,
B4,0.045 nM,
B5,0.014 nM,
B6,0.02 nM,
B7,0.012 nM,
B8,0.11 nM,
B9,4.7 nM,
B10,0.026 nM,
B11,5.2 nM,
B12,1.3 nM,
B13,0.096 nM,
B14,5.2 nM,
B15,1.2 nM,
B16,0.03 nM,
B17,0.0076 nM,
B18,0.0056 nM,
B19,0.22 nM,1.3 nM
B20,0.0075 nM,
B21,0.0072 nM,
B22,0.0068 nM,

# Target: mouse GLP-1 receptor (mouse) (UniProt O35659)
# Experiment: cell-based or functional assay
# mouse GLP-1 receptor (mouse), sequence (O35659 22-463): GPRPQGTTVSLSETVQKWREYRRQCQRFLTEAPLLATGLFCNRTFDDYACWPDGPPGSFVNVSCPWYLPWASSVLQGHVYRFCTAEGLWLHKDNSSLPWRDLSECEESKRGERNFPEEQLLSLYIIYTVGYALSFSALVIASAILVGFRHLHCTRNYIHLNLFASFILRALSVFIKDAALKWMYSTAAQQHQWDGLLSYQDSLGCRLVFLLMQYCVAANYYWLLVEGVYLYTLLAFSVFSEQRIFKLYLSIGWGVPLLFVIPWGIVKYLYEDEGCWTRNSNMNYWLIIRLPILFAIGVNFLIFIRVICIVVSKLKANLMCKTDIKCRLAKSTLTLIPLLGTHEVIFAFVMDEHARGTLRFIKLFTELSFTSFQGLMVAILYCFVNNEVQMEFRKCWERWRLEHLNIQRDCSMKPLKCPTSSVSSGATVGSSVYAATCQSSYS
Binder,cAMP EC50,"cAMP EC50, Batch 2"
B1,0.2 nM,
B2,1.2 nM,
B3,1.2 nM,
B4,0.73 nM,
B5,1.7 nM,
B6,6.8 nM,
B7,1.6 nM,
B8,> 3640 nM,
B9,1.9 nM,
B10,0.25 nM,
B11,6.5 nM,
B12,16 nM,
B13,> 5460 nM,
B14,1.4 nM,
B15,> 1060 nM,
B16,280 nM,
B17,> 17100 nM,
B18,> 17200 nM,
B19,0.84 nM,1.6 nM
B20,> 1470 nM,
B21,1300 nM,
B22,850 nM,

# Target: T2, mouse GIP receptor (mouse) (UniProt Q0P543)
# T2 sequence (looked up): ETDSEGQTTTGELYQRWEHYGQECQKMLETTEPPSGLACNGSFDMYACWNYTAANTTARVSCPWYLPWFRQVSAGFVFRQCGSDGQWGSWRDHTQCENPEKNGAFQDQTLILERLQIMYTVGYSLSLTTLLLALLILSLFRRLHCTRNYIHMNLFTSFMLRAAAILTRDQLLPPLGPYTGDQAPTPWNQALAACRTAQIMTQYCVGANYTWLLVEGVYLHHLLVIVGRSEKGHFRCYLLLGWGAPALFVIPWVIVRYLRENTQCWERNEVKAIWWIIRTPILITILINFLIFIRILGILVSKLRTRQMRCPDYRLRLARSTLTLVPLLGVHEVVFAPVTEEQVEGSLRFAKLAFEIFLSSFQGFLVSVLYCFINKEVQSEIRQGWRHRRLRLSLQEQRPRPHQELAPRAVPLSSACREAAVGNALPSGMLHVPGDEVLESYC
# Experiment: cell-based or functional assay
Binder,cAMP EC50,"cAMP EC50, Batch 2"
B1,8.3 nM,
B2,6.6 nM,
B3,0.4 nM,
B4,5.4 nM,
B5,0.26 nM,
B6,0.44 nM,
B7,0.091 nM,
B8,210 nM,
B9,22 nM,
B10,0.25 nM,
B11,31 nM,
B12,15 nM,
B13,0.36 nM,
B14,31 nM,
B15,16 nM,
B16,2.3 nM,
B17,0.031 nM,
B18,0.012 nM,
B19,4.9 nM,> 6300 nM
B20,0.019 nM,
B21,0.017 nM,
B22,0.033 nM,

# Target: rat GLP-1 receptor (rat) (UniProt P32301)
# Experiment: cell-based or functional assay
# rat GLP-1 receptor (rat), sequence (P32301 22-463): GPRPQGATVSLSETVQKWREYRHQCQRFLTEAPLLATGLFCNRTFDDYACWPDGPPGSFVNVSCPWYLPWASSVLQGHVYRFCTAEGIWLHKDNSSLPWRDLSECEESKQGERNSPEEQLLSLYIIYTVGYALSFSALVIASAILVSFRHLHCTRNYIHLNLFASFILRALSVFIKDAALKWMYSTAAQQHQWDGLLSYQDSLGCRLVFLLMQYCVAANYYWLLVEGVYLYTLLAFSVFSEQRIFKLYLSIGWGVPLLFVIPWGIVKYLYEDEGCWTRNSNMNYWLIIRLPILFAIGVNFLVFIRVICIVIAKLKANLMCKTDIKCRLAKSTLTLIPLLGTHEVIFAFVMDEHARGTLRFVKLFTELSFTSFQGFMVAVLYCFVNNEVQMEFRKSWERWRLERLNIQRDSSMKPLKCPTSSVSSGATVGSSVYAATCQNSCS
Binder,cAMP EC50,"cAMP EC50, Batch 2"
B1,0.04 nM,
B2,0.031 nM,
B3,0.022 nM,
B4,0.027 nM,
B5,0.062 nM,
B6,0.23 nM,
B7,0.05 nM,
B8,19 nM,
B9,0.058 nM,
B10,0.015 nM,
B11,0.21 nM,
B12,1.7 nM,
B13,13 nM,
B14,0.038 nM,
B15,5.4 nM,
B16,11 nM,
B17,720 nM,
B18,14000 nM,
B19,0.075 nM,0.091 nM
B20,110 nM,
B21,9.9 nM,
B22,11 nM,

# Target: T3, human GIP receptor (human) (UniProt P48546)
# T3 sequence (looked up): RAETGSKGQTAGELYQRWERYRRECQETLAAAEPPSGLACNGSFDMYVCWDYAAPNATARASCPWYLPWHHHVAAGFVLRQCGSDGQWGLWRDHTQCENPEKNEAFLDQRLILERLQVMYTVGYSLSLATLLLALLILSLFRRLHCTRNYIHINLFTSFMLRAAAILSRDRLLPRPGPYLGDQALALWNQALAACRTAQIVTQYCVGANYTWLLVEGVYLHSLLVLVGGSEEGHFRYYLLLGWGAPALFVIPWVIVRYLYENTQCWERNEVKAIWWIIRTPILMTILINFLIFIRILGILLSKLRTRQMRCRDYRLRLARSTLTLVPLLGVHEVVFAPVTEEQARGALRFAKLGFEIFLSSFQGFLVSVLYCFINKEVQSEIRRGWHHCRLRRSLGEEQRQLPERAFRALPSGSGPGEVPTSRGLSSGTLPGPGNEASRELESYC
# Experiment: cell-based or functional assay
Binder,cAMP EC50,"cAMP EC50, hGIPr (C3) line","cAMP EC50, Batch 2"
B1,0.011 nM,,
B2,0.0084 nM,,
B3,,1.3 nM,
B4,0.0099 nM,,
B5,0.0087 nM,,
B6,0.01 nM,,
B7,0.0098 nM,,
B8,0.021 nM,,
B9,0.12 nM,,
B10,0.011 nM,,
B11,0.091 nM,,
B12,0.086 nM,,
B13,0.024 nM,,
B14,0.15 nM,,
B15,0.048 nM,,
B16,0.019 nM,,
B17,0.0026 nM,,
B18,0.0037 nM,,
B19,0.058 nM,,0.028 nM
B20,0.0045 nM,,
B21,0.0027 nM,,
B22,0.038 nM,,

# Target: human glucagon receptor (human) (UniProt P47871)
# Experiment: cell-based or functional assay
# human glucagon receptor (human), sequence (P47871 26-477): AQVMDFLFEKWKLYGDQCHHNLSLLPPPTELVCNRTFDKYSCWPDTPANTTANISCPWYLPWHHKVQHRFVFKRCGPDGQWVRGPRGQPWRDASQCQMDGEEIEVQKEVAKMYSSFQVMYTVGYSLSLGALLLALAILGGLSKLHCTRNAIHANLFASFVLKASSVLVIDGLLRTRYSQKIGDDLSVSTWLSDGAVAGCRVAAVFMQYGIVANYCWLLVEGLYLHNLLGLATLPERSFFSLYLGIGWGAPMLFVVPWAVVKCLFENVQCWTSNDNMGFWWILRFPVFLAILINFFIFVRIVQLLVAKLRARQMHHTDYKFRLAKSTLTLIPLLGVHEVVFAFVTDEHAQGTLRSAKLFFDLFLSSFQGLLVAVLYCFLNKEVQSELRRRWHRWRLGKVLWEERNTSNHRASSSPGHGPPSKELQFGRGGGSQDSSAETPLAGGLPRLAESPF
Binder,cAMP EC50,"cAMP EC50, Batch 2"
B1,43 nM,
B2,25 nM,
B3,> 440 nM,
B4,18 nM,
B5,230 nM,
B6,240 nM,
B7,23 nM,
B8,53 nM,
B9,12000 nM,
B10,220 nM,
B11,4100 nM,
B12,900 nM,
B13,280 nM,
B14,3700 nM,
B15,> 5310 nM,
B16,> 420 nM,
B17,530 nM,
B18,1600 nM,
B19,,> 6270 nM
B20,220 nM,
B21,> 269 nM,
B22,200 nM,

# Target: human GLP-1 receptor (human) (UniProt P43220)
# Experiment: cell-based or functional assay
# human GLP-1 receptor (human), sequence (P43220 24-463): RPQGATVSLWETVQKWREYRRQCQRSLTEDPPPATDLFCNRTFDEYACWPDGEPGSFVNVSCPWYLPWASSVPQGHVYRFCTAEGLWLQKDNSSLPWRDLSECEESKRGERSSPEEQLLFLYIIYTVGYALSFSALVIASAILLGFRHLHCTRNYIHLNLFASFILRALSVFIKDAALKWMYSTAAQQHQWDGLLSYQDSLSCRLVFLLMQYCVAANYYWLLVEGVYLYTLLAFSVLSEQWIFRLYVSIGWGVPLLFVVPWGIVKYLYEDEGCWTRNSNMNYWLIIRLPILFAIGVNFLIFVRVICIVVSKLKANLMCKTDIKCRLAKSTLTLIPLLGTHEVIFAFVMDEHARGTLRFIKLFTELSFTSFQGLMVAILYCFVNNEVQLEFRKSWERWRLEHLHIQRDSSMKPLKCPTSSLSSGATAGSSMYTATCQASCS
Binder,cAMP EC50,"cAMP EC50, Batch 2"
B1,0.061 nM,
B2,0.11 nM,
B3,0.073 nM,
B4,0.091 nM,
B5,0.92 nM,
B6,3.4 nM,
B7,0.18 nM,
B8,> 3640 nM,
B9,0.31 nM,
B10,0.1 nM,
B11,1.6 nM,
B12,7.7 nM,
B13,> 5460 nM,
B14,0.35 nM,
B15,> 5310 nM,
B16,63 nM,
B17,2800 nM,
B18,9500 nM,
B19,0.23 nM,0.2 nM
B20,370 nM,
B21,65 nM,
B22,31 nM,

# Source: patent US20160185837A1, “GIP AND GLP-1 RECEPTOR DUAL-AGONISTS FOR THE TREATMENT OF DIABETES” (Medimmune Limited, priority 2013, published 2016)
